The results in this text go back to PMC12376665.

The target in this assay is SlAVT6A (split-ubiquitin bait fusion) (tomato (Solanum lycopersicum)).
Sequence of SlAVT6A (split-ubiquitin bait fusion) (tomato (Solanum lycopersicum)) (main, as listed by the source): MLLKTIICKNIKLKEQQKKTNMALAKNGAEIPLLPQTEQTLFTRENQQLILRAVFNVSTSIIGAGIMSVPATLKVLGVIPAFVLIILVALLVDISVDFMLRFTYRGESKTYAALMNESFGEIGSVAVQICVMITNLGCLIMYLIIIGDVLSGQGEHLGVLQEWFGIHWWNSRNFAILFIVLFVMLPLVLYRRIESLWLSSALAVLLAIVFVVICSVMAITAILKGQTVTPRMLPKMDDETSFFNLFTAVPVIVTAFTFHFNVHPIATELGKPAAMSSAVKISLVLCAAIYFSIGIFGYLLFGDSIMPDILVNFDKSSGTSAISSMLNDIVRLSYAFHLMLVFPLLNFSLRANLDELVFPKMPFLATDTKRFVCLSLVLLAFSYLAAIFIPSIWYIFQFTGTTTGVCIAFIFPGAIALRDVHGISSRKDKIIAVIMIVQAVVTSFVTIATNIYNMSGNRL

The substance “SlAVT6B (split-ubiquitin prey fusion) (from UniProt A0A3Q7FT69 1-472) (natural protein)” returned an amino acid content in the liquid culture of yeast co-expressing SlAVT6A and SlAVT6B, relative to SlAVT6A expressed alone of 21.8%; an efflux activity for amino acids in yeast co-expressing SlAVT6A and SlAVT6B, compared to only SlAVT6A expressing of 65%.
